Source: IntAct's records for PubMed 17698606

B1: S phase cyclin A-associated protein in the endoplasmic reticulum (Homo sapiens), Q9BY12 (parent)
chain: MMASFQRSNSHDKVRRIVAEEGRTARNLIAWSVPLESKDDDGKPKCQTGGKSKRTIQGTHKTTKQSTAVDCKITSSTTGDKHFDKSPTKTRHPRKIDLRARYWAFLFDNLRRAVDEIYVTCESDQSVVECKEVLMMLDNYVRDFKALIDWIQLQEKLEKTDAQSRPTSLAWEVKKMSPGRHVIPSPSTDRINVTSNARRSLNFGGSTGTVPAPRLAPTGVSWADKVKAHHTGSTASSEITPAQSCPPMTVQKASRKNERKDAEGWETVQRGRPIRSRSTAVMPKVSLATEATRSKDDSDKENVCLLPDESIQKGQFVGDGTSNTIESHPKDSLHSCDHPLAEKTQFTVSTLDDVKNSGSIRDNYVRTSEISAVHIDTECVSVMLQAGTPPLQVNEEKFPAEKARIENEMDPSDISNSMAEVLAKKEELADRLEKANEEAIASAIAEEEQLTREIEAEENNDINIETDNDSDFSASMGSGSVSFCGMSMDWNDVLADYEARESWRQNTSWGDIVEEEPARPPGHGIHMHEKLSSPSRKRTIAESKKKHEEKQMKAQQLREKLREEKTLKLQKLLEREKDVRKWKEELLDQRRRMMEEKLLHAEFKREVQLQAIVKKAQEEEAKVNEIAFINTLEAQNKRHDVLSKLKEYEQRLNELQEERQRRQEEKQARDEAVQERKRALEAERQARVEELLMKRKEQEARIEQQRQEKEKAREDAARERARDREERLAALTAAQQEAMEELQKKIQLKHDESIRRHMEQIEQRKEKAAELSSGRHANTDYAPKLTPYERKKQCSLCNVLISSEVYLFSHVKGRKHQQAVRENTSIQGRELSDEEVEHLSLKKYIIDIVVESTAPAEALKDGEERQKNKKKAKKIKARMNFRAKEYESLMETKNSGSDSPYKAKLQRLAKDLLKQVQVQDSGSWANNKVSALDRTLGEITRILEKENVADQIAFQAAGGLTALEHILQAVVPATNVNTVLRIPPKSLCNAINVYNLTCNNCSENCSDVLFSNKITFLMDLLIHQLTVYVPDENNTILGRNTNKQVFEGLTTGLLKVSAVVLGCLIANRPDGNCQPATPKIPTQEMKNKPSQGDPFNNRVQDLISYVVNMGLIDKLCACFLSVQGPVDENPKMAIFLQHAAGLLHAMCTLCFAVTGRSYSIFDNNRQDPTGLTAALQATDLAGVLHMLYCVLFHGTILDPSTASPKENYTQNTIQVAIQSLRFFNSFAALHLPAFQSIVGAEGLSLAFRHMASSLLGHCSQVSCESLLHEVIVCVGYFTVNHPDNQVIVQSGRHPTVLQKLCQLPFQYFSDPRLIKVLFPSLIAACYNNHQNKIILEQEMSCVLLATFIQDLAQTPGQAENQPYQPKGKCLGSQDYLELANRFPQQAWEEARQFFLKKEKK

Variants of: B1
Details: with cdk2_human CDK2, P24941

| effect of a mutation on the interaction | Variant |
| --- | --- |
| with no effect | R678A;L680A |
| disrupting interaction strength | R199A;S200A;L201A |
| with no effect | R26A;N27A;L28A |
